# From patent publication US8784821 (Amgen, dated 2014)
# T1: recombinant soluble extracellular domain of the human CD3 epsilon chain with His6 tag, expressed alone (human)
# T1 construct: also called recombinant CD3-epsilon antigen; rCD3-epsilon
# T1 chain: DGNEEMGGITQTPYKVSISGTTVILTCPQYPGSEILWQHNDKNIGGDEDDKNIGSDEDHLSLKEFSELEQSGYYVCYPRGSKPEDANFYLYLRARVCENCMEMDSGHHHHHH
# B1: human anti-human CD3 scFv 3-106 (FLAG-tagged) (scFv)
# scFv: ELQLVESGGGVVQPGRSLRLSCAASGFTFSSYGMHWVRQAPGKGLEWVAVISYDGSNKYYADSVKGRFTISRDNSKNTLYLQMNSLRSEDTAVYYCARLSPYCTNGVCWDAFDIWGQGTMVTVSSGGGGSGGGGSGGGGSELQMTQSPSSLSASVGDRVSITCRASQTISNYLNWYQLKPGKAPKLLIYAASTLQSEVPTRFSGSGSGTDFTLTISGLHPEDFATYYCQQFNSYPRTFGQGTKVEIKTGDYKDDDDK
# notes: VH-(G4S1)3-VL scFv from huLIB-ST, tested as crude periplasmic preparation
# B2: human anti-human CD3 scFv 3-190 (FLAG-tagged) (scFv)
# scFv: ELQLVEWGAGLLKPSETLSLTCAVYGGSFSGYYWSWIRQPPGKGLEWIGEINHSGSTNYNPSLKSRVTISVDTSKNQFSLKLSSVTAADTAVYYCARGRGRFLGWLLGGSNWFDPWGQGTLVTVSSGGGGSGGGGSGGGGSELVMTQSPSSLSASVGDRVTITCRASQGISNYLNWYQQKPGKAPKLLIYDASNLETGVPSRFSGSGSGTDFTLTISSLQPEDFATYYCQQSYSTPYTFGQGTKVDIKTGDYKDDDDK
# notes: VH-(G4S1)3-VL scFv from huLIB-STE, tested as crude periplasmic preparation
# B3: human anti-human CD3 scFv 3-148 (FLAG-tagged) (scFv)
# scFv: ELQLVESGPGLVKPSGTLSLTCAVSGGSISSRNWWSWVRQPPGKGLEWIGDIYHSGSTNYNPSLKSRVTISVDKSKNQFSLKLSSVTAADTAVYYCASGYTSCRDAFDIWGQGTMVTVSSGGGGSGGGGSGGGGSELVMTQSPSSLSASVGDRVTITCRASQGIGNYLAWYQQKPGQPPKMLIYWASIRESGVPDRFSGSGSGTDFTLTISSLQAEDVAVYYCQQYYSNPQTFGQGTKVEIKTGDYKDDDDK
# notes: as for B1
# B4: human anti-human CD3 scFv 4-48 (FLAG-tagged) (scFv)
# scFv: ELQLVESGPVLVKPTDTLTLTCTVSGFSLNNPRMGVSWIRQPPGKTLEWLAHIFPSDAKAHSASLKSRLTISKDTSKSQVVPTMTNMDPVDTATYYCARILGEYYPPAWFDPWGQGTLVTVSSGGGGSGGGGSGGGGSELVMTQSPDSLAVSLGERATINCKSSQSVLYSSNNKNYLAWYQQKPGQPPKLLIYWASTRESGVPDRFSGSGSGTDFTLTISSLQAEDVAVYYCQQYLKIPYTFGQGTKVEIKTGDYKDDDDK
# notes: VH-(G4S1)3-VL scFv from huLIB-STE, tested as crude periplasmic preparation; also called clone 4-48
# B5: human anti-human CD3 scFv 4-10 (FLAG-tagged) (scFv)
# scFv: ELQLVESGGGLVQPGGSLRLSCAASGFTFSSYAMGWVRQAPGKGLEWVSAVSGSGGSTYYADSVKGRFTISRDNSKNTLYLQMNSLRAEDTAVYYCAKAKFLGHYYGMDVWGQGTTVTVSSGGGGSGGGGSGGGGSELQMTQSPSSLSASVGDRVTITCRASQSISSYLNWYQQKPGKAPKLLIYAASSLQSGVPSRFSGSGSGTEFTLTISSLQPEDFATYYCLQHNAYPYTFGQGTKVEIKTGDYKDDDDK
# notes: VH-(G4S1)3-VL scFv from huLIB-ST, tested as crude periplasmic preparation; Flag-tag put at the C-terminus because it replaces the vector's His6-tag; also called construct 4-10
# B6: human anti-human CD3 scFv 3-114 (FLAG-tagged) (scFv)
# scFv: ELQLVESGGGLVKPGRSLRLSCTASGFTFGDYAMSWFRQAPGKGLEWVGFIRSKAYGGTTEYAASVKGRFTISRDDSKSIAYLQMNSLKTEDTAVYYCTPQLWLLQDAFDIWGQGTMVTVSSGGGGSGGGGSGGGGSELQMTQSPSSLSASVGDRVTITCRASQGISNYLAWYQQKPGKVPKLLIYAASTLQSGVPSRFSGSGSGTDFTLTISSLQPEDFATYYCQQSYSTPPTFGQGTKLEIKTGDYKDDDDK
# notes: as for B1
# B7: human anti-human CD3 scFv 3-550 (FLAG-tagged) (scFv)
# scFv: ELQLVESGPGLVKPSQTLSLTCAISGDSVSSNSAAWNWIRQSPSRGLEWLGRTYYRSKWYNDYAVSVKSRITINPDTSKNQFSLQLNSVTPEDTAVYYCARDRRRIAARQYYGMDVWGQGTTVTVSSGGGGSGGGGSGGGGSELVLTQSPGTLSLSPGERATLSCRASQSVSSNYLAWYQQKPGQAPRLLIYGASSRATGIPDRFSGSGSGTDFTLTISSLQPEDVATYYCQKYNSAPLTFGGGTKVEIKTGDYKDDDDK
# notes: as for B2
# B8: human anti-human CD3 scFv 3-271 (FLAG-tagged) (scFv)
# scFv: ELQLVEWGAGLLKPSETLSLTCAVYGGSFSGYYWSWIRQPPGKGLEWIGEINHSGSTNYNPSLKSRVTISVDTSKNQFSLKLSSVTAADTAVYYCARGPDRMGHGFDIWGQGTMVTVSSGGGGSGGGGSGGGGSELQMTQSPSSLSASVGDRVTITCRASQSISSYLNWYQQKSGKAPKLLIYAASSLQSGVPSRFSGSGSGTDFTLTISSLQPEDFATYYCQQSYSSPWTFGQGTKVEIKTGDYKDDDDK
# notes: as for B2
# Molecular target: T1, recombinant soluble extracellular …
# Test: ELISA on coated recombinant CD3-epsilon, periplasmic preparation, anti-Flag detection
# Description: (§1) FIG. 14: CD3-specific ELISA-analysis of periplasmic preparations containing Flag-tagged scFv protein fragments from selected clones. […] Detection was performed by a monoclonal anti-Flag antibody followed by a peroxidase-conjugated polyclonal goat anti-mouse antibody. The ELISA was developed by an ABTS-substrate solution as described in Example 3. The OD-values (Y-axis) were measured at 405 nm by an ELISA-reader. Clone numbers are presented on the X-axis, where the first number of the clone number indicates the round of panning in which the respective clone was obtained, while the second number indicates the respective clone of this round. Periplasmic preparation from cells producing the anti-CD3 scFv L2K was included, as well as the purified anti-CD3 antibodies UCHT1, SP34 and OKT3 (concentration of each 1 µg/ml).
# (§2) ELISA experiments were carried out by coating the recombinant CD3 epsilon on wells of 96 well plastic plates (Nunc, maxisorb) typically at 4° C. over night. […] After removal of the blocking solution, PPPs and control solutions were added to the wells and incubated for typically one hour at room temperature. The wells were then washed three times with PBS/0.05% Tween 20. Detection of scFvs and control antibodies bound to immobilized antigen was Carried out using a monoclonal murine anti-His6 or anti FLAG-tag antibody (Qiagen anti-PentaHis and M2 anti Flag Sigma, typically each at a final concentration of 1 µg/ml PBS) detected with a peroxidase-labeled polyclonal goat anti- (mouse Fab-fragment) antibody (Dianova, 1 µg/ml PBS). The signal was developed by adding ABTS substrate solution and measured at a wavelength of 405 nm. Unspecific binding of the test-samples to the blocking agent was examined by carrying out the identical assays with the identical reagents and identical timing on ELISA plates which were not coated but blocked with BSA, only.
row,binding result,Binder
1,binds,B1
2,binds,B2
3,binds,B3
4,binds,B4
5,binds,B5
6,binds,B6
7,binds,B7

# Molecular target: T2, human CD3 complex, native, on CD3-positive human T cells (human, UniProt P07766 23-207; P09693 23-182; P04234 22-171)
# T2 construct: whole, on cells; Presented as part of the TCR/CD3 complex on Jurkat cells (flow cytometry) and on the CD4-positive T cell clone CB15 (cytotoxicity assays); also called CD3 on Jurkat cells; CD3+ Jurkat cells
# Test: conclusion from ELISA (FIGS. 14 and 15) and flow cytometry on Jurkat cells
# Target sequence in this assay (P07766 23-207, chain 1 of 3): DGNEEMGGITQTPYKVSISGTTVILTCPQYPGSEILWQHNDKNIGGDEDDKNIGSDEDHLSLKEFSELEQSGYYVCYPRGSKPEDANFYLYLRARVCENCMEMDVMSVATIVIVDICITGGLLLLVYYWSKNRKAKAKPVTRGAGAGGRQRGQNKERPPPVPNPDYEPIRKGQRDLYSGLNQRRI
# Target sequence in this assay (P09693 23-182, chain 2 of 3): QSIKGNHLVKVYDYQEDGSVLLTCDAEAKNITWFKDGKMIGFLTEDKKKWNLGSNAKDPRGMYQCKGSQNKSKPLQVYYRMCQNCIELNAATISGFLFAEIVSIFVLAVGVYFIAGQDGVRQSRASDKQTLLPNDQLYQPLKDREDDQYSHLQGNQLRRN
# Target sequence in this assay (P04234 22-171, chain 3 of 3): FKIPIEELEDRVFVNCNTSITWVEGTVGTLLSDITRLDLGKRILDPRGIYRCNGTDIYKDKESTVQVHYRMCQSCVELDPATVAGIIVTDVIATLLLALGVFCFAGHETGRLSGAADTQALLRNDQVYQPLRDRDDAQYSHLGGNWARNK
row,binding result,Binder
1,binds,B1
2,binds,B3
3,binds,B5
4,binds,B6

# Molecular target: T3, BSA (blocking agent) (UniProt P02769 25-607)
# T3 construct: Specificity control of the ELISA
# Test: ELISA on uncoated plates blocked with PBS 3% BSA, periplasmic preparation
# Description: as §1, with “15:” for “14: CD3-specific”, “example” for “Example”
# as §2
# T3 sequence (P02769 25-607 limits assumed): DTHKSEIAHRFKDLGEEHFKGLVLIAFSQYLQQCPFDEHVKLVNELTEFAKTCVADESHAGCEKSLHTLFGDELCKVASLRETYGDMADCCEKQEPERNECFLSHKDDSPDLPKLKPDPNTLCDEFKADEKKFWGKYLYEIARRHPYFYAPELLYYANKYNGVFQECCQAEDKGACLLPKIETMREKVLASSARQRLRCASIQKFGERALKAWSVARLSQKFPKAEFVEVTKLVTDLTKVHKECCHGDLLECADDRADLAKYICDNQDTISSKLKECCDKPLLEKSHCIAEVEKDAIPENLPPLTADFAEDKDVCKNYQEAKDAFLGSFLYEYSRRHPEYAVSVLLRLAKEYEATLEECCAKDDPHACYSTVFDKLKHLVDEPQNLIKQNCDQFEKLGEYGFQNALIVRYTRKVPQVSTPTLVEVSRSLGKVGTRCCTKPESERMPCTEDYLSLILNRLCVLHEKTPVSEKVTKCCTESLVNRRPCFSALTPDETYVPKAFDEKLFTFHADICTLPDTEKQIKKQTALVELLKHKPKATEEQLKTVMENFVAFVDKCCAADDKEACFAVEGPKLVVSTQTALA
row,binding result,Binder
1,no binding,B8
2,no binding,B1
3,no binding,B2
4,no binding,B3
5,no binding,B4
6,no binding,B5
7,no binding,B6
8,no binding,B7

# Molecular target: T2, human CD3 complex, native, on …
# Test: flow cytometry screening on Jurkat cells, periplasmic preparation
# Description: Periplasmic preparations of soluble scFv protein fragments were added to CD3-positive Jurkat cells. Detection was performed by a 1.0 monoclonal anti-Flag antibody followed by a PE-labeled polyclonal anti-mouse antibody. ScFvs binding to cells was measured by an increase in fluorescence intensity as compared to cells that were incubated with PBS alone: Fluorescence intensity is blotted on the X-axis, the number of events is blotted on the Y-axis. The negative control is shown in black, the respective scFvs are shown in gray. Shifting to the right indicates positive binding to the cells. Periplasmic preparation from cells producing the anti-CD3 scFv L2K was included, as well as the purified anti-CD3 antibodies UCHT1, SP34 and OKT3 (concentration of each 5 µg/ml).
# Target sequence in this assay (P09693 23-182, chain 2 of 2): as the sequence (P09693 23-182, chain 2 of 3) above
# Target sequence in this assay (P04234 22-171, chain 3 of 2): as the sequence (P04234 22-171, chain 3 of 3) above
row,binding result,Binder
1,binds,B2
2,binds,B4
3,binds,B7
